Data: the supplement of paper PMC11246515
± gives the standard deviation of the averaged measurements.

Assay: total protein half-life in vivo (active degradation + dilution); higher = more stable protein
[1] = E. coli NCM3722 delta-clpP delta-lon delta-hslV, growth: N-lim chemostat, doubling time 6 h
[2] = E. coli NCM3722 delta-clpP, growth: N-lim chemostat, doubling time 6 h
[3] = E. coli NCM3722 delta-hslV, growth: N-lim chemostat, doubling time 6 h
[4] = E. coli NCM3722 delta-lon, growth: N-lim chemostat, doubling time 6 h
[5] = E. coli NCM3722 delta-smpB, growth: N-lim chemostat, doubling time 6 h
[6] = wild type E. coli NCM3722, growth: C-lim chemostat, doubling time 3 h
[7] = wild type E. coli NCM3722, growth: C-lim chemostat, doubling time 6 h
[8] = wild type E. coli NCM3722, growth: C-lim chemostat, doubling time 12 h
[9] = wild type E. coli NCM3722, growth: N-lim chemostat, doubling time 6 h
[10] = wild type E. coli NCM3722, growth: N-lim chemostat, doubling time 12 h
[11] = wild type E. coli NCM3722, growth: P-lim chemostat, doubling time 6 h
[12] = wild type E. coli NCM3722, growth: P-lim chemostat, doubling time 12 h

Sequence: MEKAKQVTWRLLAAGVCLLTVSSVARADSLDEQRSRYAQIKQAWDNRQMDVVEQMMPGLKDYPLYPYLEYRQITDDLMNQPAVTVTNFVRANPTLPPARTLQSRFVNELARREDWRGLLAFSPEKPGTTEAQCNYYYAKWNTGQSEEAWQGAKELWLTGKSQPNACDKLFSVWRASGKQDPLAYLERIRLAMKAGNTGLVTVLAGQMPADYQTIASAIISLANNPNTVLTFARTTGATDFTRQMAAVAFASVARQDAENARLMIPSLAQAQQLNEDQIQELRDIVAWRLMGNDVTDEQAKWRDDAIMRSQSTSLIERRVRMALGTGDRRGLNTWLARLPMEAKEKDEWRYWQADLLLERGREAEAKEILHQLMQQRGFYPMVAAQRIGEEYELKIDKAPQNVDSALTQGPEMARVRELMYWNLDNTARSEWANLVKSKSKTEQAQLARYAFNNQWWDLSVQATIAGKLWDHLEERFPLAYNDLFKRYTSGKEIPQSYAMAIARQESAWNPKVKSPVGASGLMQIMPGTATHTVKMFSIPGYSSPGQLLDPETNINIGTSYLQYVYQQFGNNRIFSSAAYNAGPGRVRTWLGNSAGRIDAVAFVESIPFSETRGYVKNVLAYDAYYRYFMGDKPTLMSATEWGRRY [P0AGC3]
- total protein half-life in vivo [1]: 5.924 ± 0.022 h
- total protein half-life in vivo [2]: 6.7 ± 0.89 h
- total protein half-life in vivo [3]: 6.326 ± 0.06 h
- total protein half-life in vivo [4]: 6.53 ± 0.35 h
- total protein half-life in vivo [5]: 6.054 ± 0.043 h
- total protein half-life in vivo [6]: 3.16 ± 0.12 h
- total protein half-life in vivo [7]: 6.34 ± 0.25 h
- total protein half-life in vivo [8]: 12 ± 2.2 h
- total protein half-life in vivo [9]: 6.29 ± 0.41 h
- total protein half-life in vivo [10]: 12.2 ± 0.23 h
- total protein half-life in vivo [11]: 6.07 ± 0.19 h
- total protein half-life in vivo [12]: 12.3 ± 0.39 h

Sequence: MLKRKKVKPITLRDVTIIDDGKLRKAITAASLGNAMEWFDFGVYGFVAYALGKVFFPGADPSVQMVAALATFSVPFLIRPLGGLFFGMLGDKYGRQKILAITIVIMSISTFCIGLIPSYDTIGIWAPILLLICKMAQGFSVGGEYTGASIFVAEYSPDRKRGFMGSWLDFGSIAGFVLGAGVVVLISTIVGEANFLDWGWRIPFFIALPLGIIGLYLRHALEETPAFQQHVDKLEQGDREGLQDGPKVSFKEIATKYWRSLLTCIGLVIATNVTYYMLLTYMPSYLSHNLHYSEDHGVLIIIAIMIGMLFVQPVMGLLSDRFGRRPFVLLGSVALFVLAIPAFILINSNVIGLIFAGLLMLAVILNCFTGVMASTLPAMFPTHIRYSALAAAFNISVLVAGLTPTLAAWLVESSQNLMMPAYYLMVVAVVGLITGVTMKETANRPLKGATPAASDIQEAKEILVEHYDNIEQKIDDIDHEIADLQAKRTRLVQQHPRIDE [P0C0L7]
- total protein half-life in vivo [1]: 5.246 ± 0.018 h
- total protein half-life in vivo [2]: 4.97 ± 0.25 h
- total protein half-life in vivo [3]: 4.59 ± 0.35 h
- total protein half-life in vivo [4]: 4.34 ± 0.14 h
- total protein half-life in vivo [5]: 5.04 ± 0.79 h
- total protein half-life in vivo [7]: 4.62 ± 0.43 h
- total protein half-life in vivo [8]: 7.56 ± 3.2 h
- total protein half-life in vivo [9]: 4.46 ± 0.41 h
- total protein half-life in vivo [10]: 10.4 ± 2.3 h
- total protein half-life in vivo [11]: 4.78 ± 0.066 h
- total protein half-life in vivo [12]: 7.9 ± 0.16 h

Sequence: MRALPICLVALMLSGCSMLSRSPVEPVQSTAPQPKAEPAKPKAPRATPVRIYTNAEELVGKPFRDLGEVSGDSCQASNQDSPPSIPTARKRMQINASKMKANAVLLHSCEVTSGTPGCYRQAVCIGSALNITAK
- total protein half-life in vivo [1]: 5.47 ± 0.43 h
- total protein half-life in vivo [2]: 5.57 ± 0.38 h
- total protein half-life in vivo [3]: 6.58 ± 0.75 h
- total protein half-life in vivo [4]: 6.404 ± 0.011 h
- total protein half-life in vivo [5]: 5.51 ± 0.33 h
- total protein half-life in vivo [6]: 2.89 ± 0.62 h
- total protein half-life in vivo [7]: 5.65 ± 0.51 h
- total protein half-life in vivo [8]: 12.4 ± 3.6 h
- total protein half-life in vivo [9]: 5.65 ± 0.16 h
- total protein half-life in vivo [10]: 14.7 ± 1.2 h
- total protein half-life in vivo [11]: 6.5 ± 1.4 h
- total protein half-life in vivo [12]: 13.4 ± 0.85 h

Sequence: MNAKIIASLAFTSMFSLSTLLSPAHAEEQEKALNFGIISTESQQNLKPQWTPFLQDMEKKLGVKVNAFFAPDYAGIIQGMRFNKVDIAWYGNLSAMEAVDRANGQVFAQTVAADGSPGYWSVLIVNKDSPINNLNDLLAKRKDLTFGNGDPNSTSGFLVPGYYVFAKNNISASDFKRTVNAGHETNALAVANKQVDVATNNTENLDKLKTSAPEKLKELKVIWKSPLIPGDPIVWRKNLSETTKDKIYDFFMNYGKTPEEKAVLERLGWAPFRASSDLQLVPIRQLALFKEMQGVKSNKGLNEQDKLAKTTEIQAQLDDLDRLNNALSAMSSVSKAVQ
- total protein half-life in vivo [11]: 1.02 ± 0.21 h
- total protein half-life in vivo [12]: 2.63 ± 1.1 h

Sequence: MSRSQNLRHNVINQVIDDMARGHIPSPLPSQSALAEMYNISRTTVRHILSHLRECGVLTQVGNDYVIARKPDHDDGFACTTASMSEQNKVFEQAFFTMINQRQLRPGETFSELQLARAAGVSPVVVREYLLKFGRYNLIHSEKRGQWSMKQFDQSYAEQLFELREMLETHSLQHFLNLPDHDPRWLQAKTMLERHRLLRDNIGNSFRMFSQLDRDFHSLLLSAADNIFFDQSLEIISVIFHFHYQWDESDLKQRNIIAVDEHMTILSALICRSDLDATLALRNHLNSAKQSMIRSINENTRYAH
- total protein half-life in vivo [6]: 0.713 h
- total protein half-life in vivo [7]: 1.15 h

Sequence: MRLLHTMLRVGDLQRSIDFYTKVLGMKLLRTSENPEYKYSLAFVGYGPETEEAVIELTYNWGVDKYELGTAYGHIALSVDNAAEACEKIRQNGGNVTREAGPVKGGTTVIAFVEDPDGYKIELIEEKDAGRGLGN [P0AC81]
- total protein half-life in vivo [1]: 5.13 ± 0.38 h
- total protein half-life in vivo [2]: 4.5 ± 0.53 h
- total protein half-life in vivo [3]: 4.72 ± 0.37 h
- total protein half-life in vivo [4]: 5 ± 0.3 h
- total protein half-life in vivo [5]: 4.3 ± 0.39 h
- total protein half-life in vivo [6]: 3.48 ± 0.63 h
- total protein half-life in vivo [7]: 5.44 ± 0.1 h
- total protein half-life in vivo [8]: 8.9 ± 0.29 h
- total protein half-life in vivo [9]: 4.38 ± 0.4 h
- total protein half-life in vivo [10]: 8.01 ± 1 h
- total protein half-life in vivo [11]: 5.41 ± 0.27 h
- total protein half-life in vivo [12]: 11.6 ± 0.91 h

Sequence: MIVKRPVSASLARAFFYIVLLSILSTGIALLTLASSLRDAEAINIAGSLRMQSYRLGYDLQSGSPQLNAHRQLFQQALHSPVLTNLNVWYVPEAVKTRYAHLNANWLEMNNRLSKGDLPWYQANINNYVNQIDLFVLALQHYAERKMLLVVAISLAGGIGIFTLVFFTLRRIRHQVVAPLNQLVTASQRIEHGQFDSPPLDTNLPNELGLLAKTFNQMSSELHKLYRSLEASVEEKTRDLHEAKRRLEVLYQCSQALNTSQIDVHCFRHILQIVRDNEAAEYLELNVGENWRISEGQPNPELPMQILPVTMQETVYGELHWQNSHVSSSEPLLNSVSSMLGRGLYFNQAQKHFQQLLLMEERATIARELHDSLAQVLSYLRIQLTLLKRSIPEDNATAQSIMADFSQALNDAYRQLRELLTTFRLTLQQADLPSALREMLDTLQNQTSAKLTLDCRLPTLALDAQMQVHLLQIIREAVLNAMKHANASEIAVSCVTAPDGNHTVYIRDNGIGIGEPKEPEGHYGLNIMRERAERLGGTLTFSQPSGGGTLVSISFRSAEGEESQLM
- total protein half-life in vivo [1]: 7.015 ± 0.027 h
- total protein half-life in vivo [2]: 6.09 ± 0.081 h
- total protein half-life in vivo [3]: 6.03 ± 0.085 h
- total protein half-life in vivo [4]: 6.24 ± 0.29 h
- total protein half-life in vivo [5]: 5.91 ± 0.37 h
- total protein half-life in vivo [7]: 6.73 ± 0.72 h
- total protein half-life in vivo [8]: 12.6 ± 0.26 h
- total protein half-life in vivo [9]: 6.0563 ± 0.0037 h
- total protein half-life in vivo [11]: 5.97 ± 0.28 h
- total protein half-life in vivo [12]: 11.7 ± 2.1 h

Sequence: MTQTLLAIENLSVGFRHQQTVRTVVNDVSLQIEAGETLALVGESGSGKSVTALSILRLLPSPPVEYLSGDIRFHGESLLHASDQTLRGVRGNKIAMIFQEPMVSLNPLHTLEKQLYEVLSLHRGMRREAARGEILNCLDRVGIRQAAKRLTDYPHQLSGGERQRVMIAMALLTRPELLIADEPTTALDVSVQAQILQLLRELQGELNMGMLFITHNLSIVRKLAHRVAVMQNGRCVEQNYAATLFASPTHPYTQKLLNSEPSGDPVPLPEPASTLLDVEQLQVAFPIRKGILKRIVDHNVVVKNISFTLRAGETLGLVGESGSGKSTTGLALLRLINSQGSIIFDGQPLQNLNRRQLLPIRHRIQVVFQDPNSSLNPRLNVLQIIEEGLRVHQPTLSAAQREQQVIAVMHEVGLDPETRHRYPAEFSGGQRQRIAIARALILKPSLIILDEPTSSLDKTVQAQILTLLKSLQQKHQLAYLFISHDLHVVRALCHQVIILRQGEVVEQGPCARVFATPQQEYTRQLLALS
- total protein half-life in vivo [2]: 5.76 ± 0.31 h
- total protein half-life in vivo [3]: 6.42 ± 0.031 h
- total protein half-life in vivo [4]: 4.55 ± 0.74 h
- total protein half-life in vivo [5]: 5.67 ± 0.15 h
- total protein half-life in vivo [6]: 3 ± 0.32 h
- total protein half-life in vivo [7]: 5.64 ± 0.14 h
- total protein half-life in vivo [8]: 13.1 ± 0.73 h
- total protein half-life in vivo [9]: 5.87 ± 0.26 h
- total protein half-life in vivo [10]: 11.6 h
- total protein half-life in vivo [11]: 6.17 ± 0.13 h
- total protein half-life in vivo [12]: 11.9 ± 0.82 h
